# Experiment: soluble on expression in E. coli; label from the status in PepcDB or PDB records
row,Sequence,soluble on expression in E. coli
1,MAHHHHHHMYRNLFDKLKDGPLKISILGSGNWASAISKVVGTNAKNNYLFENEVRMWIRDEFVNGERMVDIINNKHENTKYLKGVPLPHNIVAHSDLASVINDADLLIFIVPCQYLESVLASIKESESIKIASHAKAISLTKGFIVKKNQMKLCSNYISDFLNIPCSALSGANIAMDVAMENFSEATIGGNDKDSLVIWQRVFDLPYFKINCVNETIEVEICGALKNIITLACGFCDGLNLPTNSKSAIIRNGINEMILFGKVFFQKFNENILLESCGFADIITSFLAGRNAKCSAEFIKSTPKKTWEELENEILKGQKLQGTVTLKYVYHMIKEKNMTNEFPLFTVLHKISFENEDPSSLLKTFMNNKINQLNL,soluble
2,MLDSVTHSTFLPNASFCDPLMPWTDLFSNEDYYPAFEHQTACDSYWTSVHPEYWTKRHVWEWLQFCCDQYKLDANCISFCHFNISGLQLCSMTQEEFIEAAGICGEYLYFILQNIRSQGYSFFNDAEETKTGIKDYADSSCLKTSGIKSQDCHSRTSLQSSHLWEFVRDLLLSPEENCGILEWEDREQGIFRVVKSEALAKMWGQRKKNDRMTYEKLSRALRYYYKTGILERVDRRLVYKFGKNAHGWQEEKL,soluble
3,SLSFASETKKELTNLEVKDCCINAELSALIRMNGALSFTNRHLVLDVQTENAAIARRIYTLLKKQYDVSVELLVRKKMRLKKNNVYIVRFSENAKAILEDLKILGENFVFERSISKELVKKRCCKRSYMRGAFLAGGSVNNPETSSYHLEIFSLYKEHNDSLCDLLNEFQLNSKTLERKKGYITYLKEAEKITEFLNVIGAHNSLLRFEDVRIVRDMRNSVNRLVNCETANLNKTIGASLRQVENIKYIDERIGLEALPEKLREIAQLRIDYQEVTLKELGEMVASGKISKSGINHRLRKLDEIAEQLRTGQTVTLK,soluble
4,GPGSMSAIKRSLNVGVVGMGNMGIPITRNLAFKARSAMYLQIHSRTLSKARQVCDDMSADGATCAMRIHDRYSTMTKWCDVILLTLAHRAASRKVLLEDSEALVTNARPGQIIVDHTTVDMELSRECAHEAERRGAVFLDAPMSGSPKQAFNNQLVLMVGGPAEQVQRVSPIFRMYADHIHHMGANGSGTAAKLLSQALVASHNAAAAEAMTIANRLGIEDYQKLIQVLDASWGSSTMLRRNAPTMQDLVRNPDKLAPSSGASIDNLLEDLALLDASLPKIEKGDNGNGGREVEEERFPVLDASLRMLGAAVESGMGDRDMAAVIHYIPAAAAMEKEEGVRVQPRGLTSGAFLDRNATGKVNSGPAAAAGAAVAASSPPTPAEIEMDPGSLADSLSAAESSSNGKGSTTQAASIAEPLTTASSQQPPAFTPEDFY,soluble
5,SLERPPALAMPMPTEGTPPPLSGTPIPVPAYFRHAEPGFSLKRPRGLSRSLPPPPPAKGSIPISRLFPPRTPGWHQLQPRRVSFRGEASETLQSPGYDPSRPESFFQQSFQRLSRLGHGSYGEVFKVRSKEDGRLYAVKRSMSPFRGPKDRARKLAEVGSHEKVGQHPCCVRLEQAWEEGGILYLQTELCGPSLQQHCEAWGASLPEAQVWGYLRDTLLALAHLHSQGLVHLDVKPANIFLGPRGRCKLGDFGLLVELGTAGAGEVQEGDPRYMAPELLQGSYGTAADVFSLGLTILEVACNMELPHGGEGWQQLRQGYLPPEFTAGLSSELRSVLVMMLEPDPKLRATAEALLALPVLRQPRAWGVLWCMAAEALSRGWALWQALLALLCWLWHGLAHPASWLQPLGPPATPPGSPPCSLLLDSSLSSNWDDDSLGPSLSPEAVLARTVGSTSTPRSRCTPRDALDLSDINSEPPRGSFPSFEPRNLLSLFEDTLDPT,soluble
6,MSSMVEVEHWNTLRLRIYIGENDKWEGRPLYKVIVEKLREMGIAGATVYRGIYGFGKKSRVHSSDVIRLSTDLPIIVEVVDRGHNIEKVVNVIKPMIKDGMITVEPTIVLWVGTQEEIKKFEEDAIAERQ,soluble
7,MSLDRNEMLEFAAKLHSHLSPGVALGIKMAQIAYEKLGVNFRGKGLVGIAETAMCLPDALQVVAGTTPGNRNLIVKDYGKLALAIVRFDTREGYRVTIKKEAAKKSELIKKFLYRLGKLNKEEEKRLAEEFLNLEPEYFEVREIRLTIPVGGTKEPIVECEKCGELQPSDYVAEVDGRMVCFMCAGKGYFEEGGSHHHHHH,soluble
8,MGNGLAKCLIDGDTETFWHAKWQGGSDPLPYDIVIDMKQNIQIAQVELLPRGRGSNNPIKVVEFAASEDNVNWTPIGRFGFTNQDAALEYYVKSIKARYIRLTIPDDGGNSTVAAIRELDVKGTIINLEHHHHHH,not soluble
9,MKLTKGKVLLAGCMAMAMSHSVLAQDIKVAIVGAMSGPVAQYGDMQFTGARQAIADINASGGIKGDKLVGVEYDDACDPKQAVAVANKVINDGIRYVIGHLCSSSTQPASDIYEDEGVIMITPAATNADLTTRGYKMIMRTTGLDSDQGPTAAKYIVETIKPKRIAVVHDKQQYGEGLARSVRDSLKEQGAEVVLFEGVTAGDKDFSTLVARLKKENVDFVYFGGYYPEMGQILRQAKQAGLTARFMGPEGVGNSSLSNIAGEASEGMLVTLPKRYDQVPANQPIVDALKAKKLDPTGPFVWTTYAALQSLTTAMERTGSKEPADLANDLKTGKPVETVMGPLSWDDKGDLKGFEFGIFEWHADGSSTAVK,not soluble
10,MKDMKTIEGIIVVTTPEIPGYKVVEVKGVARGGTVRATHIGRDIMALLRNLKGGEVKEYTEMMAEAREEALRRMALHAKELGANAVVNFRFATSNLGGSMAEIYAYGTAVVVERVEK,soluble
11,MGSDKIHHHHHHMETQTRKHSEQKHNSFNNSLEVWKLCFSYPDFVFVSCFNNSLEVWKPGKTLTYDSATNGFNNSLEVWKHSSEALFKAEFRRFNNSLEVWKHHRARRRTLLLPGFNNSLEVWKLIDFKYDSSHYSGFNNSLEVWKPFVLELPDACDCTCFNNSLEVWKPHHRGDSLIRCRVSIIP,not soluble
12,MTAFVHTLSDGMELTVEIKRRAKKNLIIRPAGTHTIRISVPPCFSVSALNRWLYENEAVLRQTLAKTPPPQTAENRLPESILFHGRQLALTAHQDTQILLMPSEIRVPEGAPEKQLALLRDFLERQAHSYLIPRLERHARTTQLFPAPSSLTSAKTFWGVCRKTTGIRFNWRLVGAPEYVADYVCIHELCHLAHADHSRAFWALTRRFAPYTPEAKQWLKIHGRELFALGLEHHHHHH,not soluble
13,MVVNYPRAYTAEQSRPINLVGKQGQAVQISIHYPSQYICANRERILPDWQEQALFWVVIVLQQSKYPLVKSTAEIEREKEHLREKFMRFGCDLAFELRDRGYLADLIDPRTGYPMLSRPGVIPHNDTAVVKALLNYPVLKNKCSVIVHPHWGTAVYPSIFLSAALEHHHHHH,not soluble
14,MAHHHHHHMFRFCGRRLVARTLPLLADYQELPEAFEFMEHKVADKDIHSAYENMETLRLTVTRQDEFLFKETPVKCVTIVGVNGECGVYPGHAYEITQLTPAPLTVEMPDGTVKKFFTSGGFAHINNEGSCDINCVECIPLTELDVDAAEKALAQQQSALNSAHDDKARAVIEIRIGVLESVIQSLKHA,not soluble
15,MGSDKIHHHHHHMGKFLVEREQMRYPVDVYTGKIQAYPEGKPSAIAKIQVDGELMLTELGLEGDEQAEKKVHGGPDRALCHYPREHYLYWAREFPEQAELFVAPAFGENLSTDGLTESNVYMGDIFRWGEALIQVSQPRSPCYKLNYHFDISDIAQLMQNTGKVGWLYSVIAPGKVSADAPLELVSRVSDVTVQEAAAIAWHMPFDDDQYHRLLSAAGLSKSWTRTMQKRRLSGKIEDFSRRLWGK,not soluble
16,MAHHHHHHMNVINRMLSRGHVAASASLPIKERPFPVNYGLSTFKWHLDSRKPSKAILLHDLFGSSAYWQMLLHESLGRLPCSGLTPLVPLELFAVDFRGHNHSKSLPCPEEGRAFTMACAADIMLLQQQVLRADAKLVGIGFGALVACQAALHSPESGIDSLVLIVNGPSDLLACEPARYSLPSFISDIPKEISSVADLEHHLHKRVPNEAERALILSTVEQREGTVGFKFNETLFQFRGPLCGFSDVGPENIFTKPVTVIQCGSEEFSGEAKSDFMKHFPKAKFVLFEGDRSGGISGLSAQGPAVTRTLLEAMELLGETTGGEE,not soluble
17,MDMHSGTFNPQDFAWQGLTLTPAAAIHIRELVAKQPGMVGVRLGVKQTGCAGFGYVLDSVSEPDKDDLLFEHDGAKLFVPLQAMPFIDGTEVDFVREGLNQIFKFHNPKAQNECGCGESFGV,not soluble
18,MMVTFGEPGVYSSYSNPLPSTDTWEDCLEYCLGLSTCVAVYNNNCQMFEIGQISTATSTSETKIAFKFLADNATCPIQEPTSLQGHYFTNTTYQPYTVSYSAPTWTFANSTQLECPTNYALFVRDLGPWCMKVIQHYACCNKTIAATMCNSYGAQLSGLDSTAEYDFMLAGSWPIFKNVTTNKIGSTQYYATGVWVDGARTLACMGNTTYPCNTTQAFSFTDPTLSSPPGGYLWLPGRPDGGDAPADGIVLNLYTTELYGMEDTPSSEPVSGVYCWMGYLCGAVPT,not soluble
19,MALHTVLIILSLLPMLEAQNPEHANFTIGEPITNETLSWLSDKWFFMGAAFRKLEYRQAIQTMQSEFFYLTTNLINDTIELRESQTIGDQCVYNSTHLGFQRENGTFSKYEGGVETFAHLIVLRKHGAFMLAFDLKDEKKRGLSLYAKRPDITPELQEVFQKAVTHVGMDESEIIFVDWKKDRCGQQEKKQLELGKETKKDPEEGQA,soluble
20,MSDVARILKEARDQGRLTALDFAKEIFDDFIELHGDRNFRDDGAVIGGIGRLNGQAVTVVGIQKGKNLQDNLNRNFGQPHPEGYRKALRLMKQAEKFGRSVVTFINTAGAYPGVGAEERGQGEAIARNLMEMSDLKVPIIAIIIGEGGSGGALALAVADKVWMLENTIYSILSPEGFATILWKDGSRSEEAAELMKITSGELLNMGIVDKVIPERGYFTSEIIEAIKTAIVDELAELSQLSTEDLLEARYQRFRKY,not soluble
21,MSRPTIIINDLDAERIDILLEQPAYAGLPIADALNAELDRAQMCSPEEMPHDVVTMNSRVKFRNLSDGEVRVRTLVYPAKMTDSNTQLSVMAPVGAALLGLRVGDSIHWELPGGVATHLEVLELEYQPEAAGDYLL,soluble
22,MAHHHHHHMAKNDIWTPLESNPDSLYLYSCKLGQSKLKFVDIYGFNNDLLDMIPQPVQAVIFLYPVNDNIVSENNTNDKHNLKENFDNVWFIKQVKIITLCNMNNILPILYVCFNSIELKNNKSIENLHHEFCGQVENRDDILDVDTHFIVFVQIEGKIIELDGRKDHPTVHCFTNGDNFLYDTGKIIQDKFIEKCKDDLRFSALAVIPNDNFDII,soluble
23,MGSDKIHHHHHHMRYLRADERCLICSLRQAENLLKKTITSPEKRWVIFREVFRIMSEMKWGMKPLEVNGEVHRFIMEYIKEEDPFKEEKRRSNDMAIKLVEMFRPEILNSPDPVYSAAKLAVSGNLIDLGIPGWSVDEIFEKLHEVYERPFDREDFEKFRNVLMNASTLFYVADNAGEIVFDKFFIEVLKMENPSLEVVVAVRGKPIINDATIEDAKYIGLEEIATVISSGVDEPGVMLDKASEEFRKAFFEFDVVISKGQGNFEGLYEEEKKNLFFLLTAKCDFVAEVLNVPLGGKVFISSSSL,not soluble
